Experimental findings from patent US20220365073A1 (TECHNION RESEARCH AND DEVELOPMENT FOUNDATION, published 2022) are described below.

This experiment deals with Ubiquitin-B+1 (UBB+1), untagged, expressed in HEK293FT cells. Put plainly: co-IP with anti-UBB+1 antibody from HEK293FT cells, immunoblot; MS/MS of co-purified proteins. In general terms: In western blotting, separated proteins are transferred to a membrane and probed.

B1: UCH-L1 (Ubiquitin C-terminal hydrolase L1), endogenous in HEK293FT cells (enzyme, UniProt P09936 1-220, looked up)
chain: MQLKPMEINPEMLNKVLSRLGVAGQWRFVDVLGLEEESLGSVPAPACALLLLFPLTAQHENFRKKQIEELKGQEVSPKVYFMKQTIGNSCGTIGLIHAVANNQDKLGFEDGSVLKQFLSETEKMSPEDRAKCFEKNEAIQAAHDAVAQEGQCRVDDKVNFHFILFNNVDGHLYELDGRMPFPVNHGASSEDTLLKDAAKVCREFTEREQGEVRFSAVALC
notes: Endogenous protein in the lysate of HEK293FT (human) cells; also called UCL-H1; endogenous UCH-L1
Consider B1, for which the binding result is given as “binds”.
